{"source": "patent US20200079833A1", "about": "(AstraZeneca / MedImmune, published 2020)", "binders": {"B1": {"name": "SEQ ID NO 139 (peptide)", "peptide": "H[Aib]EGS[αMeF]TSDV[αMeS]S[αMeF]LEGEAAK([γGlu-γGlu-γGlu-Dodecanoyl(12-OPh(4-COOH))])E[αMeF]IA[αMeF]VV[αMeK]GG-NH2", "modifications": "N-terminus assumed", "SMILES": "CC[C@H](C)[C@H](NC(=O)[C@](C)(Cc1ccccc1)NC(=O)[C@H](CCC(=O)O)NC(=O)[C@H](CCCCNC(=O)CC[C@H](NC(=O)CC[C@H](NC(=O)CC[C@H](NC(=O)CCCCCCCCCCCOc1ccc(C(=O)O)cc1)C(=O)O)C(=O)O)C(=O)O)NC(=O)[C@H](C)NC(=O)[C@H](C)NC(=O)[C@H](CCC(=O)O)NC(=O)CNC(=O)[C@H](CCC(=O)O)NC(=O)[C@H](CC(C)C)NC(=O)[C@](C)(Cc1ccccc1)NC(=O)[C@H](CO)NC(=O)[C@](C)(CO)NC(=O)[C@@H](NC(=O)[C@H](CC(=O)O)NC(=O)[C@H](CO)NC(=O)[C@@H](NC(=O)[C@](C)(Cc1ccccc1)NC(=O)[C@H](CO)NC(=O)CNC(=O)[C@H](CCC(=O)O)NC(=O)C(C)(C)NC(=O)[C@@H](N)Cc1c[nH]cn1)[C@@H](C)O)C(C)C)C(=O)N[C@@H](C)C(=O)N[C@@](C)(Cc1ccccc1)C(=O)N[C@H](C(=O)N[C@H](C(=O)N[C@@](C)(CCCCN)C(=O)NCC(=O)NCC(N)=O)C(C)C)C(C)C"}, "B2": {"name": "SEQ ID NO 140 (peptide)", "peptide": "H[Aib]EGS[αMeF]TSDV[αMeS]S[αMeF]LEGEAAK([Ahx-Dodecanoyl(12-OPh(4-COOH))])E[αMeF]IA[αMeF]VV[αMeK]GG-NH2", "modifications": "N-terminus assumed", "SMILES": "CC[C@H](C)[C@H](NC(=O)[C@](C)(Cc1ccccc1)NC(=O)[C@H](CCC(=O)O)NC(=O)[C@H](CCCCNC(=O)CCCCCNC(=O)CCCCCCCCCCCOc1ccc(C(=O)O)cc1)NC(=O)[C@H](C)NC(=O)[C@H](C)NC(=O)[C@H](CCC(=O)O)NC(=O)CNC(=O)[C@H](CCC(=O)O)NC(=O)[C@H](CC(C)C)NC(=O)[C@](C)(Cc1ccccc1)NC(=O)[C@H](CO)NC(=O)[C@](C)(CO)NC(=O)[C@@H](NC(=O)[C@H](CC(=O)O)NC(=O)[C@H](CO)NC(=O)[C@@H](NC(=O)[C@](C)(Cc1ccccc1)NC(=O)[C@H](CO)NC(=O)CNC(=O)[C@H](CCC(=O)O)NC(=O)C(C)(C)NC(=O)[C@@H](N)Cc1c[nH]cn1)[C@@H](C)O)C(C)C)C(=O)N[C@@H](C)C(=O)N[C@@](C)(Cc1ccccc1)C(=O)N[C@H](C(=O)N[C@H](C(=O)N[C@@](C)(CCCCN)C(=O)NCC(=O)NCC(N)=O)C(C)C)C(C)C"}, "B3": {"name": "SEQ ID NO 141 (peptide)", "peptide": "H[Aib]EGS[αMeF]TSDV[αMeS]S[αMeF]LEGEAAK([Ahx-Ahx-Dodecanoyl(12-OPh(4-COOH))])E[αMeF]IA[αMeF]VV[αMeK]GG-NH2", "modifications": "N-terminus assumed", "SMILES": "CC[C@H](C)[C@H](NC(=O)[C@](C)(Cc1ccccc1)NC(=O)[C@H](CCC(=O)O)NC(=O)[C@H](CCCCNC(=O)CCCCCNC(=O)CCCCCNC(=O)CCCCCCCCCCCOc1ccc(C(=O)O)cc1)NC(=O)[C@H](C)NC(=O)[C@H](C)NC(=O)[C@H](CCC(=O)O)NC(=O)CNC(=O)[C@H](CCC(=O)O)NC(=O)[C@H](CC(C)C)NC(=O)[C@](C)(Cc1ccccc1)NC(=O)[C@H](CO)NC(=O)[C@](C)(CO)NC(=O)[C@@H](NC(=O)[C@H](CC(=O)O)NC(=O)[C@H](CO)NC(=O)[C@@H](NC(=O)[C@](C)(Cc1ccccc1)NC(=O)[C@H](CO)NC(=O)CNC(=O)[C@H](CCC(=O)O)NC(=O)C(C)(C)NC(=O)[C@@H](N)Cc1c[nH]cn1)[C@@H](C)O)C(C)C)C(=O)N[C@@H](C)C(=O)N[C@@](C)(Cc1ccccc1)C(=O)N[C@H](C(=O)N[C@H](C(=O)N[C@@](C)(CCCCN)C(=O)NCC(=O)NCC(N)=O)C(C)C)C(C)C"}, "B4": {"name": "SEQ ID NO 142 (peptide)", "peptide": "H[Aib]EGS[αMeF]TSDV[αMeS]S[αMeF]LEGEAAK([Ahx-Ahx-Ahx-Dodecanoyl(12-OPh(4-COOH))])E[αMeF]IA[αMeF]VV[αMeK]GG-NH2", "modifications": "N-terminus assumed", "SMILES": "CC[C@H](C)[C@H](NC(=O)[C@](C)(Cc1ccccc1)NC(=O)[C@H](CCC(=O)O)NC(=O)[C@H](CCCCNC(=O)CCCCCNC(=O)CCCCCNC(=O)CCCCCNC(=O)CCCCCCCCCCCOc1ccc(C(=O)O)cc1)NC(=O)[C@H](C)NC(=O)[C@H](C)NC(=O)[C@H](CCC(=O)O)NC(=O)CNC(=O)[C@H](CCC(=O)O)NC(=O)[C@H](CC(C)C)NC(=O)[C@](C)(Cc1ccccc1)NC(=O)[C@H](CO)NC(=O)[C@](C)(CO)NC(=O)[C@@H](NC(=O)[C@H](CC(=O)O)NC(=O)[C@H](CO)NC(=O)[C@@H](NC(=O)[C@](C)(Cc1ccccc1)NC(=O)[C@H](CO)NC(=O)CNC(=O)[C@H](CCC(=O)O)NC(=O)C(C)(C)NC(=O)[C@@H](N)Cc1c[nH]cn1)[C@@H](C)O)C(C)C)C(=O)N[C@@H](C)C(=O)N[C@@](C)(Cc1ccccc1)C(=O)N[C@H](C(=O)N[C@H](C(=O)N[C@@](C)(CCCCN)C(=O)NCC(=O)NCC(N)=O)C(C)C)C(C)C"}}, "note": "Starred links: 1 amine or outer side, 2 acyl side, 3 side chain; linkers in the order of their positions; H or OH if unused. Non-standard residues stand in square brackets, D forms with d. Groups on a side chain read outwards from the residue. Primed or numbered codes have the meaning given here. No end group written: not given here. *: point of attachment. Dodecanoyl(12-OPh(4-COOH)) = O=C(O)c1ccc(OCCCCCCCCCCCC(=O)*)cc1; γGlu = O=C(O)[C@H](CCC(=O)[*:2])N[*:1]; αMeF = C[C@](N)(Cc1ccccc1)C(=O)O; αMeK = C[C@](N)(CCCCN)C(=O)O; αMeS = C[C@](N)(CO)C(=O)O; PEG2′ = not defined here; Aib = CC(C)(N)C(=O)O; Ahx = NCCCCCC(=O)O", "data": [{"target": "GLP-1 receptor (GLP-1R) (human, UniProt P43220 24-463)", "assay": "cell-based or functional assay", "units": {"cAMP Mean pM GLP-1R": "pM", "cAMP Primary assay EC50 GLP-1R n1": "nM", "cAMP Primary assay EC50 GLP-1R n2": "nM"}, "values": [{"binder": "B1", "cAMP Mean pM GLP-1R": 25.5, "cAMP Primary assay EC50 GLP-1R n1": 0.029, "cAMP Primary assay EC50 GLP-1R n2": 0.022}, {"binder": "B2", "cAMP Mean pM GLP-1R": 4.9, "cAMP Primary assay EC50 GLP-1R n1": 0.0059, "cAMP Primary assay EC50 GLP-1R n2": 0.0039}, {"binder": "B3", "cAMP Mean pM GLP-1R": 6.9, "cAMP Primary assay EC50 GLP-1R n1": 0.0087, "cAMP Primary assay EC50 GLP-1R n2": 0.005}, {"binder": "B4", "cAMP Mean pM GLP-1R": 10.1, "cAMP Primary assay EC50 GLP-1R n1": 0.012, "cAMP Primary assay EC50 GLP-1R n2": 0.0079}, {"binder": "H[Aib]EGS[αMeF]TSDV[αMeS]S[αMeF]LEGEAAK([PEG2′-Dodecanoyl(12-OPh(4-COOH))])E[αMeF]IA[αMeF]VV[αMeK]GG-NH2", "note": "[SEQ ID NO 143]", "cAMP Mean pM GLP-1R": 8.6, "cAMP Primary assay EC50 GLP-1R n1": 0.012, "cAMP Primary assay EC50 GLP-1R n2": 0.0052}, {"binder": "H[Aib]EGS[αMeF]TSDV[αMeS]S[αMeF]LEGEAAK([PEG2′-PEG2′-Dodecanoyl(12-OPh(4-COOH))])E[αMeF]IA[αMeF]VV[αMeK]GG-NH2", "note": "[SEQ ID NO 144]", "cAMP Mean pM GLP-1R": 12.6, "cAMP Primary assay EC50 GLP-1R n1": 0.016, "cAMP Primary assay EC50 GLP-1R n2": 0.0096}, {"binder": "H[Aib]EGS[αMeF]TSDV[αMeS]S[αMeF]LEGEAAK([PEG2′-PEG2′-PEG2′-Dodecanoyl(12-OPh(4-COOH))])E[αMeF]IA[αMeF]VV[αMeK]GG-NH2", "note": "[SEQ ID NO 145]", "cAMP Mean pM GLP-1R": 21, "cAMP Primary assay EC50 GLP-1R n1": 0.027, "cAMP Primary assay EC50 GLP-1R n2": 0.015}]}, {"target": "glucagon receptor (GCGR) (human, UniProt P47871 26-477)", "sequence (P47871 26-477)": "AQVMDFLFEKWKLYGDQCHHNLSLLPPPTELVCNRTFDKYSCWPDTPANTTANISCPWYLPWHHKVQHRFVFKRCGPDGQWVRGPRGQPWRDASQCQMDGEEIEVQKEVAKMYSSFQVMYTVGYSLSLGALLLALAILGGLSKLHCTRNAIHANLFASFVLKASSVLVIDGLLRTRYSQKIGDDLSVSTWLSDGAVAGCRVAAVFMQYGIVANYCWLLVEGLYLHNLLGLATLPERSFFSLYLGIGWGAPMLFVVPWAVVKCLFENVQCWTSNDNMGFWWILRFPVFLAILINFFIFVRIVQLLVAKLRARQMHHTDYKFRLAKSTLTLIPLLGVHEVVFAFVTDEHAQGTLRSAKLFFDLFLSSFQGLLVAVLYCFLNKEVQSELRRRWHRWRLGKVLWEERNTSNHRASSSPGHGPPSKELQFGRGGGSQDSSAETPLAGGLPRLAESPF", "assay": "cell-based or functional assay", "units": {"cAMP Primary assay EC50 Gluc-R": "nM", "cAMP Primary assay EC50 Gluc-R (2nd)": "nM"}, "values": [{"binder": "B1", "cAMP Primary assay EC50 Gluc-R": 26, "cAMP Primary assay EC50 Gluc-R (2nd)": 26}, {"binder": "B2", "cAMP Primary assay EC50 Gluc-R": 27, "cAMP Primary assay EC50 Gluc-R (2nd)": 27}, {"binder": "B3", "cAMP Primary assay EC50 Gluc-R": 27, "cAMP Primary assay EC50 Gluc-R (2nd)": 27}, {"binder": "B4", "cAMP Primary assay EC50 Gluc-R": 26, "cAMP Primary assay EC50 Gluc-R (2nd)": 26}, {"binder": "H[Aib]EGS[αMeF]TSDV[αMeS]S[αMeF]LEGEAAK([PEG2′-Dodecanoyl(12-OPh(4-COOH))])E[αMeF]IA[αMeF]VV[αMeK]GG-NH2", "note": "[SEQ ID NO 143]", "cAMP Primary assay EC50 Gluc-R": 27, "cAMP Primary assay EC50 Gluc-R (2nd)": 27}, {"binder": "H[Aib]EGS[αMeF]TSDV[αMeS]S[αMeF]LEGEAAK([PEG2′-PEG2′-Dodecanoyl(12-OPh(4-COOH))])E[αMeF]IA[αMeF]VV[αMeK]GG-NH2", "note": "[SEQ ID NO 144]", "cAMP Primary assay EC50 Gluc-R": 26, "cAMP Primary assay EC50 Gluc-R (2nd)": 26}, {"binder": "H[Aib]EGS[αMeF]TSDV[αMeS]S[αMeF]LEGEAAK([PEG2′-PEG2′-PEG2′-Dodecanoyl(12-OPh(4-COOH))])E[αMeF]IA[αMeF]VV[αMeK]GG-NH2", "note": "[SEQ ID NO 145]", "cAMP Primary assay EC50 Gluc-R": 25, "cAMP Primary assay EC50 Gluc-R (2nd)": 25}]}, {"target": "T1, glucose-dependent insulinotropic peptide (gastric inhibitory polypeptide) receptor (GIPR) (human, UniProt P48546 22-466)", "T1 sequence (looked up)": "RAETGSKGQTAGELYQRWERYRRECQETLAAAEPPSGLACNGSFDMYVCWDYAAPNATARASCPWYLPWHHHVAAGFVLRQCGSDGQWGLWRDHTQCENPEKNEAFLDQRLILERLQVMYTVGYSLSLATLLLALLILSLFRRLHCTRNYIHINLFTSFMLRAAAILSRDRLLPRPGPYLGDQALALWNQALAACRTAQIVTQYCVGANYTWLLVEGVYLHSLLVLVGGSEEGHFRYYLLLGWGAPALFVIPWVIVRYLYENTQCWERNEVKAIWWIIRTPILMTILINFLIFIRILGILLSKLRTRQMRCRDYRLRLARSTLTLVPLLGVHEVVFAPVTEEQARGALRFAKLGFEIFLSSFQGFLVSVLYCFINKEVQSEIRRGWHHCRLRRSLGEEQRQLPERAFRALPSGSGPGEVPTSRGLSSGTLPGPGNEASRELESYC", "assay": "cell-based or functional assay", "units": {"cAMP Primary assay EC50 GIP-R": "nM", "cAMP Primary assay EC50 GIP-R (2nd)": "nM"}, "values": [{"binder": "B1", "cAMP Primary assay EC50 GIP-R": 26, "cAMP Primary assay EC50 GIP-R (2nd)": 26}, {"binder": "B2", "cAMP Primary assay EC50 GIP-R": 27, "cAMP Primary assay EC50 GIP-R (2nd)": 27}, {"binder": "B3", "cAMP Primary assay EC50 GIP-R": 27, "cAMP Primary assay EC50 GIP-R (2nd)": 27}, {"binder": "B4", "cAMP Primary assay EC50 GIP-R": 26, "cAMP Primary assay EC50 GIP-R (2nd)": 26}, {"binder": "H[Aib]EGS[αMeF]TSDV[αMeS]S[αMeF]LEGEAAK([PEG2′-Dodecanoyl(12-OPh(4-COOH))])E[αMeF]IA[αMeF]VV[αMeK]GG-NH2", "note": "[SEQ ID NO 143]", "cAMP Primary assay EC50 GIP-R": 27, "cAMP Primary assay EC50 GIP-R (2nd)": 27}, {"binder": "H[Aib]EGS[αMeF]TSDV[αMeS]S[αMeF]LEGEAAK([PEG2′-PEG2′-Dodecanoyl(12-OPh(4-COOH))])E[αMeF]IA[αMeF]VV[αMeK]GG-NH2", "note": "[SEQ ID NO 144]", "cAMP Primary assay EC50 GIP-R": 26, "cAMP Primary assay EC50 GIP-R (2nd)": 26}, {"binder": "H[Aib]EGS[αMeF]TSDV[αMeS]S[αMeF]LEGEAAK([PEG2′-PEG2′-PEG2′-Dodecanoyl(12-OPh(4-COOH))])E[αMeF]IA[αMeF]VV[αMeK]GG-NH2", "note": "[SEQ ID NO 145]", "cAMP Primary assay EC50 GIP-R": 25, "cAMP Primary assay EC50 GIP-R (2nd)": 25}]}]}
